Experiments:
[1] = target: the molecule itself; assay: in vitro self-assembly into fibers, seen by TEM and AFM
[2] = target: the molecule itself; assay: in vitro self-assembly, TEM

Protein | binding result [1] | binding result [2]
AIPQFSAYRVKAYNSAASSDLRNLKTALESAFADDQTYPPES (42 residues, released from the CBD-intein fusion with DTT; also called PilA19 subunit; PilA19 monomer) [PilA19 peptide (19 amino acid N-terminal truncation of G. sulfurreducens PilA)] | binds | 
CIPQFSAYRVKAYNSAASSDLRNLKTALESAFADDQTYPPES (42 residues; The N-terminal alanine of PilA19, position 20 of full-length mature PilA, is replaced by cysteine; also called cysteine-modified subunit; PilA19-A20C monomer) [PilA19-A20C cysteine-modified recombinant pilin] |  | binds

From patent US20140239237A1 (BOARD OF TRUSTEES OF MICHIGAN STATE UNIVERSITY, published 2014)
